Test results reported in US20230227838A1, “ENHANCED CELL SURVIVAL AGAINST BIOTIC AND ABIOTIC STRESSES THROUGH SALICYLICK ACID-INDUCED NPR1 CONDENSATES” (priority 2020, published 2023).
Blank lines part the entries; values can stand above or below the binder they belong to.

Tests used:
Myc-CUL3 [1] = molecular target: T1, Myc-CUL3 (Arabidopsis thaliana, UniProt Q9ZVH4 1-732); test: co-IP, co-expression in N. benthamiana, 1 mM SA
T1 construct: also called AtCUL3A (AT1G26830); not shown: N-terminal Myc tag (pEG203)
T1 sequence (looked up): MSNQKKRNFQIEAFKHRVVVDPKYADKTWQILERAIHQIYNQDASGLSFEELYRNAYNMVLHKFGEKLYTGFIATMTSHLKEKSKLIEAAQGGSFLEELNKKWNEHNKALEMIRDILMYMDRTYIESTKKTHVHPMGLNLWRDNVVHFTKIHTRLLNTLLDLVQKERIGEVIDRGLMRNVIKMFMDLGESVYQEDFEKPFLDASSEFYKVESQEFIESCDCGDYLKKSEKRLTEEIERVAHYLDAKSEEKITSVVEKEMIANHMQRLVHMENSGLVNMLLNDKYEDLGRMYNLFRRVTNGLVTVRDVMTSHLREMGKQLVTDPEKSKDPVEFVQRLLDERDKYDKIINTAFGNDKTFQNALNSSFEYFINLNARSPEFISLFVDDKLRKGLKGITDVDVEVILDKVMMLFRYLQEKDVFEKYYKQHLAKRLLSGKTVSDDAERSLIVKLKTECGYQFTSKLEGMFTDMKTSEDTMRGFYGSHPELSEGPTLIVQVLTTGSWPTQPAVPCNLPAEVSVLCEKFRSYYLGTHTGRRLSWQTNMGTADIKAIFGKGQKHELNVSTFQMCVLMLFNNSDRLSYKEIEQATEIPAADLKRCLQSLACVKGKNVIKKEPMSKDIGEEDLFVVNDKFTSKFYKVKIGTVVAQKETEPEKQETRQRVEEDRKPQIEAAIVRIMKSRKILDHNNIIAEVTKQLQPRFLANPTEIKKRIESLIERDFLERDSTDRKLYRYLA

Myc-CUL3 [2] = molecular target: T1, Myc-CUL3; test: pull-down, N. benthamiana, SA dose response
Myc-CUL3 [3] = molecular target: T1, Myc-CUL3; test: co-IP, N. benthamiana, 1 mM SA 5 hr

- binding result (Myc-CUL3 [1]): binds
B1: NPR1-HA (other)
chain: MDTTIDGFADSYEISSTSFVATDNTDSSIVYLAAEQVLTGPDVSALQLLSNSFESVFDSPDDFYSDAKLVLSDGREVSFHRCVLSARSSFFKSALAAAKKEKDSNNTAAVKLELKEIAKDYEVGFDSVVTVLAYVYSSRVRPPPKGVSECADENCCHVACRPAVDFMLEVLYLAFIFKIPELITLYQRHLLDVVDKVVIEDTLVILKLANICGKACMKLLDRCKEIIVKSNVDMVSLEKSLPEELVKEIIDRRKELGLEVPKVKKHVSNVHKALDSDDIELVKLLLKEDHTNLDDACALHFAVAYCNVKTATDLLKLDLADVNHRNPRGYTVLHVAAMRKEPQLILSLLEKGASASEATLEGRTALMIAKQATMAVECNNIPEQCKHSLKGRLCVEILEQEDKREQIPRDVPPSFAVAADELKMTLLDLENRVALAQRLFPTEAQAAMEIAEMKGTCEFIVTSLEPDRLTGTKRTSPGVKIAPFRILEEHQSRLKALSKTVELGKRFFPRCSAVLDQIMNCEDLTQLACGEDDTAEKRLQKKQRYMEIQETLKKAFSEDNLELGNSSLTDSTSSTSKSTGGKRSNRKLSHRRR
notes: Full-length wild-type NPR1, transiently expressed in N. benthamiana; also called HA-fused NPR1; WT NPR1; not shown: C-terminal HA tag (pLN462)

- binding result (Myc-CUL3 [2]): binds
B2: sim3-HA (other)
chain: MDTTIDGFADSYEISSTSFVATDNTDSSIVYLAAEQVLTGPDVSALQLLSNSFESVFDSPDDFYSDAKLVLSDGREVSFHRCVLSARSSFFKSALAAAKKEKDSNNTAAVKLELKEIAKDYEVGFDSVVTVLAYVYSSRVRPPPKGVSECADENCCHVACRPAVDFMLEVLYLAFIFKIPELITLYQRHLLDVVDKVVIEDTLVILKLANICGKACMKLLDRCKEIIVKSNVDMVSLEKSLPEELVKEIIDRRKELGLEVPKVKKHVSNVHKALDSDDIELVKLLLKEDHTNLDDACALHFAVAYCNVKTATDLLKLDLADVNHRNPRGYTVLHVAAMRKEPQLAASALEKGASASEATLEGRTALMIAKQATMAVECNNIPEQCKHSLKGRLCVEILEQEDKREQIPRDVPPSFAVAADELKMTLLDLENRVALAQRLFPTEAQAAMEIAEMKGTCEFIVTSLEPDRLTGTKRTSPGVKIAPFRILEEHQSRLKALSKTVELGKRFFPRCSAVLDQIMNCEDLTQLACGEDDTAEKRLQKKQRYMEIQETLKKAFSEDNLELGNSSLTDSTSSTSKSTGGKRSNRKLSHRRR
notes: SUMOylation-deficient mutant of NPR1; also called npr1sim3; HA-fused sim3; not shown: C-terminal HA tag (pLN462)

- binding result (Myc-CUL3 [3]): binds
B3: rdr2-HA (other)
chain: MDTTIDGFADSYEISSTSFVATDNTDSSIVYLAAEQVLTGPDVSALQLLSNSFESVFDSPDDFYSDAKLVLSDGREVSFHRCVLSARSSFFKSALAAAKKEKDSNNTAAVKLELKEIAKDYEVGFDSVVTVLAYVYSSRVRPPPKGVSECADENCCHVACRPAVDFMLEVLYLAFIFKIPELITLYQRHLLDVVDKVVIEDTLVILKLANICGKACMKLLDRCKEIIVKSNVDMVSLEKSLPEELVKEIIDRRKELGLEVPKVKKHVSNVHKALDSDDIELVKLLLKEDHTNLDDACALHFAVAYCNVKTATDLLKLDLADVNHRNPRGYTVLHVAAMRKEPQLILSLLEKGASASEATLEGRTALMIAKQATMAVEANNIPEQAKHSLKGRLAVEILEQEDKREQIPRDVPPSFAVAADELKMTLLDLENRVALAQRLFPTEAQAAMEIAEMKGTCEFIVTSLEPDRLTGTKRTSPGVKIAPFRILEEHQSRLKALSKTVELGKRFFPRCSAVLDQIMNCEDLTQLACGEDDTAEKRLQKKQRYMEIQETLKKAFSEDNLELGNSSLTDSTSSTSKSTGGKRSNRKLSHRRR
notes: not shown: C-terminal HA tag (pLN462)
